T1: hCNTN3 (Homo sapiens (Human), UniProt Q9P232)
T1 chain: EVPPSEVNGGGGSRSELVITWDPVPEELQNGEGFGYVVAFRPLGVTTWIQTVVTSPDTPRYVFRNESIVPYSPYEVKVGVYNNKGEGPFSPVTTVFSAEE

T2: hCNTN5 (Homo sapiens (Human), UniProt O94779)
T2 chain: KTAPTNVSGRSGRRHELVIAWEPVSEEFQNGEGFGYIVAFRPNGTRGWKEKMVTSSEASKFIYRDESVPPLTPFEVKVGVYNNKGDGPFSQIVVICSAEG

B1: hAPLP1 (protein)
chain: GEFVSEALLVPEGCRFLHQERMDQCESSTRRHQEAQEACSSQGLILHGSGMLLPCGSDRFRGVEYVCCPP
B2: hAPLP2 (protein)
chain: GEFVSDVLLVPEKCQFFHKERMEVCENHQHWHTVVKEACLTQGMTLYSYGMLLPCGVDQFHGTEYVCCPQ

How the values were obtained:
hCNTN3 = target: T1, hCNTN3; assay: BLI steady state, CNTN FN1-FN3 over biotinylated E1
hCNTN5 = target: T2, hCNTN5; assay: as above

Binder | Kd (hCNTN3) [µM] | Kd (hCNTN5) [µM]
B1 | 9.1 | 10.9
B2 |  | 38.6
